Experimental data from patent publication US20120258482A1, “PCNA […]” (INDIANA UNIVERSITY RESEARCH AND TECHNOLOGY CORPORATION, priority 2009, published 2012).

System: purified recombinant PCNA
Assay: Vapor diffusion assay of anti-Flag immunoprecipitates with purified recombinant PCNA
Assay type: biochemical, human
Conditions: anti-Flag immunoprecipitate from SK-Br-3 cells, 2 μg 6× His-PCNA
Description: Vapor diffusion assay. The assay was performed basically as previously described (Murray, E. D., Jr. & Clarke, S. J Biol Chem 259, 10722-10732 (1984). MCF7 breast cancer cell extracts were assayed 1-2 h in the presence of [^3H-methyl]-SAM (NEN). Following incubation, extracts were equilibrated with 100 mM NaOH with 2% SDS and spotted onto filter paper folded into an accordion pleat and placed into the neck of a vial above scintillation fluid. ^3H-methanol present in the scintillation fluid was measured the following day (See FIG. 1).
Protein expression and purification. HiTrap phenyl Sepharose HP and Superdex S200 columns were purchased from GE Biosciences. Chromatography was performed using a Biologic DuoFlow (BioRad). […] The CBP tag lacks both aspartic and glutamic acids. […] (Podust et al., Biochemistry 34, 8869-8875 (1995). A eukaryotic expression vector expressing a Flag-Arm1 fusion was transfected into and transiently expressed in SK-Br-3 cells with Fugene 6 (Roche). Anti-Flag immunoprecipitations were performed with Anti-Flag M2 Affintiy Gel (Sigma) and detected by Western analysis using anti-DDK antibodies (Origene). PIP-affinity beads were generated by covalently coupling synthetic p21 PIP peptide (Anaspec) to CH Sepharose (GE Biosciences). […]

B1: Flag-Arm1: Flag-tagged C6orf211 protein fusion, PCNA-dependent carboxyl methyltransferase (SEQ ID NO: 33) (protein, listed as Homo sapiens)
chain: MAVVPASLSGQDVGSFAYLTIKDRIPQILTKVIDTLHRHKSEFFEKHGEEGVEAEKKAISLLSKLRNELQTDKPFIPLVEKFVDTDIWNQYLEYQQSLLNESDGKSRWFYSPWLLVECYMYRRIHEAIIQSPPIDYFDVFKESKEQNFYGSQESIIALCTHLQQLIRTIEDLDENQLKDEFFKLLQISLWGNKCDLSLSGGESSSQNTNVLNSLEDLKPFILLNDMEHLWSLLSNCKKTREKASATRVYIVLDNSGFELVTDLILADFLLSSELATEVHFYGKTIPWFVSDTTIHDFNWLIEQVKHSNHKWMSKCGADWEEYIKMGKWVYHNHIFWTLPHEYCAMPQVAPDLYAELQKAHLILFKGDLNYRKLTGDRKWEFSVPFHQALNGFHPAPLCTIRTLKAEIQVGLQPGQGEQLLASEPSWWTTGKYGIFQYDGPL
modifications: Flag tag
In the case of B1, the “PCNA-dependent carboxyl methyltransferase activity” value is reported as “Significant levels”.
